Experimental findings from US20110142851A1 (EMERGENT PRODUCT DEVELOPMENT SEATTLE, published 2011) are described below.

Assay [1] has as its target T1, recombinant human IL6 (human, UniProt P05231 30-212).
T1 construct: also called rhIL6; IL6 monomer
As to the kind of experiment: SPR Biacore, mAb captured by anti-mouse Fc, single cycle kinetics.

In assay [2] the target is T2, hu HIL6 Fc dimer (dimeric human HIL6/mouse IgG Fc fusion protein) (human).
T2 construct: also called human hyper-IL6 (IL6R-IL6-mIgG); dimeric HIL6
T2 chain: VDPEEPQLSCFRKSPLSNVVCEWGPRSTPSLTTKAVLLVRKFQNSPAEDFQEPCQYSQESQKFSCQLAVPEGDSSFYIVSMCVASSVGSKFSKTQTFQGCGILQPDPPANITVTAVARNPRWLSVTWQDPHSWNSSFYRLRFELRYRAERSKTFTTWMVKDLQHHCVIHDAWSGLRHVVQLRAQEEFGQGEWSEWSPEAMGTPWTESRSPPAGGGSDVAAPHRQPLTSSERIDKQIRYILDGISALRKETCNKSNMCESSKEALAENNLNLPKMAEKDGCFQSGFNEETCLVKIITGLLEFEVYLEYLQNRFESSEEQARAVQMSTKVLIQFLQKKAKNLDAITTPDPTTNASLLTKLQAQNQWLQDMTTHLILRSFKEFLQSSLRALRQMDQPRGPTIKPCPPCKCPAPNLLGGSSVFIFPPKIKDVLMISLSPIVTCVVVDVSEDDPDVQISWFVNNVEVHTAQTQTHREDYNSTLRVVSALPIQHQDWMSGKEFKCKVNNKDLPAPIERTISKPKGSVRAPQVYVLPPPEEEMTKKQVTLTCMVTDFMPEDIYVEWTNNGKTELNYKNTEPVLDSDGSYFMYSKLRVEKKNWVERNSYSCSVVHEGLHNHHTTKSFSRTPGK
As to the kind of experiment: SPR Biacore T100, binder captured by anti-human Fc. A general note: SPR reads the build-up and loss of mass on a sensor chip optically.

The target in assay [3] is T1, recombinant human IL6. As to the kind of experiment: SPR Biacore T100, binder captured by anti-human Fc.
The next assay has as its target T3, hu HIL6 AFH monomer (human).
T3 chain: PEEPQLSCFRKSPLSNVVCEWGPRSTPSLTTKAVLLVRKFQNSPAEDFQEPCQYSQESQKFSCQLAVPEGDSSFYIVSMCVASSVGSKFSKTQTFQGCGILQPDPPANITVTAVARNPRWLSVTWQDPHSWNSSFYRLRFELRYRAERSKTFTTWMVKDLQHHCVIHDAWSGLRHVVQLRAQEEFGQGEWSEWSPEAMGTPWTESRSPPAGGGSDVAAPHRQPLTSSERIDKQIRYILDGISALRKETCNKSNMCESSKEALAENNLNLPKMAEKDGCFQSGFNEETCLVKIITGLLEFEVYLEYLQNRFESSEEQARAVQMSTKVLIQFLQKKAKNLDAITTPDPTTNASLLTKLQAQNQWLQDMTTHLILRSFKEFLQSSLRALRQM
As to the kind of experiment: SPR Biacore T100, binder captured by anti-human Fc.

Assay [4] addresses T4, Hyper-IL6 (human).
T4 chain: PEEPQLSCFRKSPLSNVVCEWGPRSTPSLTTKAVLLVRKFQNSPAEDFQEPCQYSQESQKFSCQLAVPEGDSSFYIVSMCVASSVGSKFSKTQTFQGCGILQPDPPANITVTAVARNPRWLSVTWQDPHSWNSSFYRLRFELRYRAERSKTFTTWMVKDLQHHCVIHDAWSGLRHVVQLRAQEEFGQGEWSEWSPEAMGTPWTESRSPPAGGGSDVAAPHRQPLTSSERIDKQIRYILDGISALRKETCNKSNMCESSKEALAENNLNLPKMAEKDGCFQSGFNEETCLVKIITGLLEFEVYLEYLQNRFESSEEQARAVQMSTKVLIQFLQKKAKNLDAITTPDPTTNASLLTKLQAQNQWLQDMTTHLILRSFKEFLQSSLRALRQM
As to the kind of experiment: SPR Biacore, mAb captured by anti-mouse Fc, HIL6 injected.

In assay [5] the target is T4, Hyper-IL6. As to the kind of experiment: SPR Biacore, binder captured by anti-human Fc, HIL6 injected. As for the experimental part: (§1) Anti-IL6 binding domains were captured using immobilized anti-mouse Fc polyclonal antibody in the case of anti-IL6 antibodies, or an anti-human Fc monoclonal in the case of SMIPs, Xceptors, and humanized SMIPs. IL6 binding to the anti-IL6 binding domains was studied using single cycle kinetics. Five sequential injections of IL6 were made per cycle starting with the lowest concentration of IL6 (6.4 pM) and progressing to the highest concentration (4,000 pM). The flow rate was 45 μL per minute and each injection of IL6 lasted 7 minutes. At the end of the highest IL6 concentration injection, IL6 was allowed to dissociate for 30 minutes. The data were fit to a one-to-one binding single cycle kinetics model. HIL6 binding was studied by injecting a single concentration of HIL6 (from 6.4-4,000 pM) per cycle for 7 minutes, and then allowing the bound HIL6 to dissociate for either 30 seconds (0 to 800 pM) or one hour (0 and 4,000 pM). […] All analysis was performed using BIAevaluation software.

Assay [6] addresses T1, recombinant human IL6. As to the kind of experiment: SPR Biacore, binder captured by anti-human Fc, single cycle kinetics. How it is done: as §1
For the next assay, the target named is T5, sIL6R Fc dimer (UniProt P08887 20-358, limits assumed).
T5 construct: not shown: Fc
T5 sequence (looked up): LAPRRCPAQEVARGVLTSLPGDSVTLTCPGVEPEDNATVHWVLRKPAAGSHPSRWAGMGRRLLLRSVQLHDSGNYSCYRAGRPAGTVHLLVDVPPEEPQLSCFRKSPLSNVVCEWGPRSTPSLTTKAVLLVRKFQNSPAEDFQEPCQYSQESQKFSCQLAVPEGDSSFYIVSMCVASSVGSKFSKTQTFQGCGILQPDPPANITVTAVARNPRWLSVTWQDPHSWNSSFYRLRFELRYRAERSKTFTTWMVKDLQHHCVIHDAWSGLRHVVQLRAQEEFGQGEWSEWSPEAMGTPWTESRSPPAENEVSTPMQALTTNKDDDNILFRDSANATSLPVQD
As to the kind of experiment: SPR Biacore T100, binder captured by anti-human Fc.

B1: CLB-8 mAb (antibody, V domains shown)
VH: EVQLVESGGKLLKPGGSLKLSCAASGFTFSSFAMSWFRQSPEKRLEWVAEISSGGSYTYYPDTVTGRFTISRDNAKNTLYLEMSSLRSEDTAMYYCARGLWGYYALDYWGQGTSVTVSS
VL: QIVLIQSPAIMSASPGEKVTMTCSASSSVSYMYWYQQKPGSSPRLLIYDTSNLASGVPVRFSGSGSGTSYSLTISRMEAEDAATYYCQQWSGYPYTFGGGTKLEIKR
What is called Kd is the free concentration of one partner at which half of the binding sites on the other are occupied at equilibrium, for simple one-to-one binding. The term koff denotes the rate constant with which the complex falls apart. A word on the kon: it is a measure of how fast the partners come together. In the case of B1, in the assay with recombinant human IL6 [1], the Kd was 0.022 nM, the koff was 5e-05 s⁻¹ and the kon was 2.3e+06 M⁻¹ s⁻¹.

B2: TRU(XT6)-1025 (Fc fusion)
chain: LPAQVAFTPYAPEPGSTCRLREYYDQTAQMCCSKCSPGQHAKVFCTKTSDTVCDSCEDSTYTQLWNWVPECLSCGSRCSSDQVETQACTREQNRICTCRPGWYCALSKQEGCRLCAPLRKCRPGFGVARPGTETSDVVCKPCAPGTFSNTTSSTDICRPHQICNVVAIPGNASMDAVCTSTSPTRSMAPGAVHLPQPVSTRSQHTQPTPEPSTAPSTSFLLPMGPSPPAEGSTGDTGEPKSSDKTHTCPPCPAPEAAGAPSVFLFPPKPKDTLMISRTPEVTCVVVDVSHEDPEVKFNWYVDGVEVHNAKTKPREEQYNSTYRVVSVLTVLHQDWLNGKAYACAVSNKALPAPIEKTISKAKGQPREPQVYTLPPSRDELTKNQVSLTCLVKGFYPSDIAVEWESNGQPENNYKTTPPVLDSDGSFFLYSKLTVDKSRWQQGNVFSCSVMHEALHNHYTQKSLSLSPGQRHNNSSLNTRTQKARHSPNSEVQLLESGGGLVQPGGSLRLSCAASGFTFSHYGMHWVRQAPGKGLEWVSSIYPGMTQYADSVKGRFTISRDNSKNTLYLQMNSLRAEDTAVYYCARDRGSGIDAFDIWGQGTMVTVSSGGGGSGGGGSGGGGSQSELTQPPSVSVSPGQTATVSCSGEKLGDRYAWWYQQKAGQSPVLVIYQDTKRPSGVPDRFSGSNSGTSASLVISGPQSEDEADYYCAAWDDSLKGVVFGGGSKLTVL
notes: Xceptor, TNFRSF1B ectodomain N-terminal, anti-IL6xR domain C-terminal
As for B2, the Kd in assay [2] stood at 25 nM; with hu HIL6 AFH monomer, 6.3 nM. Besides, in the assay with recombinant human IL6 [3], the binding result is reported as “no binding (tested: 100 nM)”.

B3: BSF2-77 mAb (antibody, V domains shown)
VH: QVQLQQPGAELVKPGASVKLSCKASGYIFTSYWMHWVKQRPGQGLEWIGEINPSNGRTNYNERFKSKATLTVDKSSSTAYIQLSSLTSDDSAVYYCSRSDTKATCDYWGQGTTLTVSS
VL: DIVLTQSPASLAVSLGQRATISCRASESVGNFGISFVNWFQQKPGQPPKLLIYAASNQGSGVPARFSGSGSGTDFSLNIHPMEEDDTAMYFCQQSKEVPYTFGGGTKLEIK
B3: in the assay with recombinant human IL6 [1], the Kd came out at 0.41 nM, the off-rate constant (koff) stood at 0.002 s⁻¹ and the kon turned out to be 4.8e+06 M⁻¹ s⁻¹. In the assay with Hyper-IL6 [4], this molecule displayed a Kd of 0.444 nM, a koff of 0.00096 s⁻¹ and a kon of 2.2e+06 M⁻¹ s⁻¹.

B4: TRU(S6)-1063 (Fc fusion)
VH: EVQLVESGGGLVQPGGSLRLSCAASGFTFNTYAMNWVRQAPGKGLEWVGRTVTKSNKYATYYADSVSDRFTISRDDSKNSLYLQMNSLKTEDTAVYYCAREDYYGTLDYWGQGTLVTVSS
VL: EIVLTQSPATLSLSPGERATLSCRASESVHNFGISFMNWYQQKPGQAPRLLIYTASNQGSGIPARFSGSGSGTDFTLTISSLEPEDFAVYYCHQGKEVPWTFGQGTKVEIK
notes: Humanized SMIP fusion protein (single chain)
In the assay with Hyper-IL6 [5], B4 showed an equilibrium dissociation constant (Kd) of 0.05 nM, a koff of 0.00018 s⁻¹ and a kon of 3.6e+06 M⁻¹ s⁻¹. In addition, in the assay with recombinant human IL6 [6], the Kd came to 0.051 nM, the koff amounted to 0.00019 s⁻¹ and the kon was determined as 3.9e+06 M⁻¹ s⁻¹.

B5: TRU(S6)-1064 (Fc fusion)
VH: EVQLVESGGGLVQPGGSLRLSCAASGFTFNTYAMNWVRQAPGKGLEWVGRTVTKSNKYATYYADSVSDRFTISRDDSKNSLYLQMNSLKTEDTAVYYCAREDYYGTLDYWGQGTLVTVSS
VL: DIVLTQSPASLAVSPGQRATITCRASESVHNFGISFMNWYQQKPGQPPKLLIYTASNQGSGVPARFSGSGSGTDFTLTINPVEANDTANYYCHQGKEVPWTFGQGTKVEIK
notes: as for B4
In the assay with Hyper-IL6 [5], B5 returned a Kd of 0.046 nM, a koff of 0.00019 s⁻¹ and a kon of 4.1e+06 M⁻¹ s⁻¹. In the assay with recombinant human IL6 [6], the Kd was 0.048 nM, the koff came out at 0.0002 s⁻¹ and the kon came to 4.2e+06 M⁻¹ s⁻¹.

B6: TRU(XT6)-1029 (Fc fusion)
chain: LPAQVAFTPYAPEPGSTCRLREYYDQTAQMCCSKCSPGQHAKVFCTKTSDTVCDSCEDSTYTQLWNWVPECLSCGSRCSSDQVETQACTREQNRICTCRPGWYCALSKQEGCRLCAPLRKCRPGFGVARPGTETSDVVCKPCAPGTFSNTTSSTDICRPHQICNVVAIPGNASMDAVCTSTSPTRSMAPGAVHLPQPVSTRSQHTQPTPEPSTAPSTSFLLPMGPSPPAEGSTGDTGEPKSSDKTHTCPPCPAPEAAGAPSVFLFPPKPKDTLMISRTPEVTCVVVDVSHEDPEVKFNWYVDGVEVHNAKTKPREEQYNSTYRVVSVLTVLHQDWLNGKAYACAVSNKALPAPIEKTISKAKGQPREPQVYTLPPSRDELTKNQVSLTCLVKGFYPSDIAVEWESNGQPENNYKTTPPVLDSDGSFFLYSKLTVDKSRWQQGNVFSCSVMHEALHNHYTQKSLSLSPGQRHNNSSLNTRTQKARHSPNSEVQLLESGGGLVQPGGSLRLSCAASGFTFSSYWMHWVRQAPGKGLEWVSSIYPSGGSTEYADSVKGRFTISRDNSKNTLYLQMNSLRAEDTAVYYCAKGIWFDPWGQGTLVTVSSGGGGSGGGGSGGGGSQDIQMTQSPATLSASVGDRVTITCRSSQRISGYLNWYQQQPGKAPKLLIYAASTLQSGVPSRISGSGSGTDFSLIISSLQPEDVATYYCQQSYSPPFTFGQGTKVEIK
notes: as for B2
In the case of B6, the binding result with sIL6R Fc dimer and with recombinant human IL6 [3] was “no binding (tested: 100 nM)” throughout. Moreover, the figures for the Kd (in assay [2]; with hu HIL6 AFH monomer) were 49 nM and 3000 nM, respectively.

B7: AH-65 mAb (antibody, V domains shown)
VH: EVQLVESGGGLVQPKGTLRLSCAASGFSFNTYAMNWVRQAPGKSLEWVARTVTKSNKYATYYADSVSDRVTISREDSQSMLYLQMTNLKTEDTAMYYCVREDYYGTLDYWGQGTSVTVSS
VL: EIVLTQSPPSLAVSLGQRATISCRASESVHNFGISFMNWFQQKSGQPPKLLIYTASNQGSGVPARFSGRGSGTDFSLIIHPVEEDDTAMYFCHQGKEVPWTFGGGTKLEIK
Regarding B7, in the assay with recombinant human IL6 [1], the dissociation constant (Kd) was found to be 0.007 nM, the koff came to 2.2e-05 s⁻¹ and the kon amounted to 3.2e+06 M⁻¹ s⁻¹. In the assay with Hyper-IL6 [4], this molecule showed a dissociation constant (Kd) of 0.012 nM, a dissociation rate constant (koff) of 2.4e-05 s⁻¹ and a kon of 2e+06 M⁻¹ s⁻¹.
